Test results: the supplement of paper PMC12042874
± gives the uncertainty stated by the source.

Assay: amyloid nucleation score (Sup35N fusion, yeast selection) (log enrichment); library NNK3; higher = more nucleation; inactive = no reads after selection
How it was run: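 The nucleation score equals the log enrichment of output over input reads from DiMSum, centred on the mode score of non-aggregating sequences. It was computed only for sequences with 100 or more input reads. The reads came from Illumina sequencing of plasmid inserts from psi-negative yeast expressing Sup35N fused to peptides of 20 random codons, induced with 100 μM copper sulfate for 24 hours and grown 7 days at 30°C without adenine and uracil.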

Substance	amyloid nucleation score
IHRYGTRRYETLRGQHAPFP	-0.719 ± 1.4
IHSPKLLAGAM	inactive
IICGSCPRR	inactive
IICLSGGDFRRYELDHSN	inactive
IIFQTVR	inactive
IIGKRTSMVAITLFDINGSS	inactive
IIGTLSRMLDIGIIFVTT	-0.154 ± 0.88
IIHGHHWFGYNSRLCC	inactive
IIIVILLQNWTSVRAVKPIV	inactive
IIIVKCT	inactive
IIRVRQTLSVRFIYIF	inactive
IITPELYGKLRLHH	inactive
IITTHSFQTDWHISEYQDIC	inactive
IIWAVRKGTPSSRRVTWAGK	inactive
IIYKTVHVYVYCSIVLERDL	inactive
IKEFLCLDLCQGGGLLSLMV	inactive
IKFVIIRITHSREKFSVPLS	inactive
IKPSMQIILWFGLERYSRAW	-0.308 ± 0.6
IKQRDN	inactive
IKRCK	1.39 ± 0.076
IKTRAKLLYFQLVVLTNFLP	inactive
IKVEATRSAVASLRLHI	inactive
IKWFLSNGIYYGILNFIDTR	inactive
IKYFAIVSVCGFVA	1.23 ± 0.13
ILAHPCSYRFGSWGRLINRN	inactive
ILCGESTR	inactive
ILDAMDTLLRYSGCDRLSWK	inactive

Substance	amyloid nucleation score
ILDMSERFQILNNFR	inactive
ILDWG	0.886 ± 0.15
ILFEFTTPNLSYIFCFFTIH	inactive
ILGKRC	inactive
ILHFRETLTRINNLEA	inactive
ILHKGNS	inactive
ILKVLFKF	1.13 ± 0.1
ILLKNFGYEHAAKLNTMKMI	inactive
ILLRPPGWSRQWSVRWGNYP	inactive
ILLSSHSSECNNALIRRF	1.46 ± 0.074
ILNRLCRDLYVAFTSSAACR	inactive
ILPDLRTFPWSPVVIVHSR	inactive
ILPLMEFGEPKFESSVYSS	inactive
ILRFFIT	inactive
ILSILMCLQETNTDYNSMNR	inactive
ILSTIVMFLVPSYHLFWLWA	inactive
ILSVSLVVHRKRTTWISNYH	inactive
ILTGNGYDSTRKAYCQFWCF	inactive
ILTHTEVCIPSVRTLSGCKG	inactive
ILVIYCRVMKCFKCTRMRLC	inactive
IMANFVRMYLEYMMRAAVSL	inactive
IMCANSEVVKCYCNRTKLEL	1.08 ± 0.14
IMLLLYSESYLTPRTVVNSR	inactive
IMPYC	inactive
IMSFVS	0.031 ± 0.43
IMSSTGIFNLLRAESMCSLF	inactive
IMTVSLGGRNSDSDNLSCLD	inactive

Substance	amyloid nucleation score
INFLCTDAFTMKFTGAYGKH	2.4 ± 0.054
INIWSMYYMILLLFFIIYRL	0.55 ± 0.24
INPFLHMVTSLIVEFRVLNC	inactive
INPMGITDSVCSTAASG	inactive
INRDYSVIVSGSYHHSSLTE	inactive
INSWIPWWLERKWSWHLASI	inactive
INWAKHDWGFNYFSCSICWV	1.39 ± 0.079
INYLFASRSKQEQLLDWRFS	inactive
INYSWFDLSMALTK	inactive
IPEYYKIRWRYGACRSCIVI	inactive
IPGYLLDHTAHK	inactive
IPHAARLCLMWIILWLI	inactive
IPIFWCYI	inactive
IPLLQCNIERYISLFVLVVG	inactive
IQDFSCFQRSEAVTIQGRS	inactive
IQIVSWQSAL	inactive
IQLWRTADGVYKVSGVNK	inactive
IQYIMTNLGPDYNRFEYM	inactive
IRALRKRDEDGSLLTGTLFC	-0.385 ± 1.1
IRFQSYRLASSSLVCDCVFC	0.627 ± 0.31
IRGKYRLVVRDSLNVTPYRV	inactive
IRMYSIWREDVSRRKARCMW	inactive
IRNSVLWGHFIR	inactive
IRRFIKNIVYTYGHLLLEAH	inactive
IRSERTLDSATWDPFVVLKD	inactive
IRSRTVTWQQWQLHSRNGRS	0.086 ± 0.56
